Measured values taken from PMC10072977 (Biochemical and Biophysical Research Communications, 2023).

Biological target: SARS-CoV-2 WT RBD protein (SARS-CoV-2 wild type, UniProt P0DTC2)
Assay: ELISA

B1: rabbit monoclonal antibody (RmAb) 9H1 (antibody, V domains shown)
VH: QSVEESGGRLVTPGTPLTLTCTVSGFSLSRYAMSWVRQAPGKGLEWIGIIVDSGHTAYASWAKGRFTISRTSTTVDLKMTSLTTEDTATYFCARETGGGAFYVFEFWGPGTVVTVSS
VL: QVLTQTPSSVSAAVGGTVTINCQASEDIYDNLVWYQQKPGQPPKLLIYDASTLAFGVSSRFRGSGSGTHFTLTMRDVQCDDAATYYCQGEFSCSSGDCTAFGGGTEVVVK
Question: Does B1 bind?
Answer: Result: binds
